{"source": "paper PMC11838195", "molecular_target": "T1, MBP-METTL7A WT (human, UniProt Q9H8H3 1-244)", "T1 sequence": "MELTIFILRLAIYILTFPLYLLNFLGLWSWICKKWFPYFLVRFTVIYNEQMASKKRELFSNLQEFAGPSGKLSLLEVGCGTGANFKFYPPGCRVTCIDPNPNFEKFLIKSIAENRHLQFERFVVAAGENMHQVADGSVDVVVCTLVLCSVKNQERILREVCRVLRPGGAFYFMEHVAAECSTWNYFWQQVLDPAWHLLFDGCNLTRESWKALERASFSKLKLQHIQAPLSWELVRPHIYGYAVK", "test": "EMSA"}
{"binder": "60 bp dsDNA (dsDNA) DNA 1: ATTCTTCCGAGTTTTTTCCTCATCTCACTTCCAATACAGAAAGCTTGCCCCGCCCTTCCT DNA 2: AGGAAGGGCGGGGCAAGCTTTCTGTATTGGAAGTGAGATGAGGAAAAAACTCGGAAGAAT", "values": [{"measurement": "binding result", "value": "binds"}]}
